Read-outs that look alike come from different tables or passages of the source.
T1: recombinant human CD32b (human, UniProt P31994 46-217)
T1 sequence (looked up): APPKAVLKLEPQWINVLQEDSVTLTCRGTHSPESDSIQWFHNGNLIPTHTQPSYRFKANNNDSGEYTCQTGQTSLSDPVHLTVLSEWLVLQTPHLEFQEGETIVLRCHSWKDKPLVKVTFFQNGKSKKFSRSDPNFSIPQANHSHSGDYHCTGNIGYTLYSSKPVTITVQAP

T2: recombinant human CD32a (167R) (human, UniProt P12318 36-218)
T2 sequence (looked up): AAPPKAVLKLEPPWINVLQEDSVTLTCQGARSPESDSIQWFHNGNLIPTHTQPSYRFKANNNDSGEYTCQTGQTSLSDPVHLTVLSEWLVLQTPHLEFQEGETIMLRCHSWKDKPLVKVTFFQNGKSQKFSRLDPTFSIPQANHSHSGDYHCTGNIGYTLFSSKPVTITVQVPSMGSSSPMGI

T3: Recombinant Cynomolgus IL-13 Protein, His Tag (SINO BIOLOGICAL, Cat. 11057-C07H) (cynomolgus monkey, UniProt Q5I6E4 19-132 (Macaca thibetana entry))
T3 construct: also called Cyno IL-13; cynomolgus monkey IL-13
T3 chain: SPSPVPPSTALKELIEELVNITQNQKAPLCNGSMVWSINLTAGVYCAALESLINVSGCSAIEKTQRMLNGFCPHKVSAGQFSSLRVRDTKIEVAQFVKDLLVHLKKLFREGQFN


Columns and labels:
[1] = target: biotinylated hIL-13 (human, UniProt P35225 35-146, limits assumed, biotinylated (site not stated)); experiment: FACS; blockade of biotinylated hIL-13 (0.05 ug/mL) binding to HEK293 cells expressing hIL-13Rα1/hIL-4Rα
Sequence of biotinylated hIL-13 (P35225 other isoform, or with tags, fused parts or gaps limits assumed): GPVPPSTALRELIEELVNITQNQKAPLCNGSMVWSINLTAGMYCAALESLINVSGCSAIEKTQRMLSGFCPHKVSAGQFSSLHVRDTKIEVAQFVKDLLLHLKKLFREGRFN
How it was run: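 HEK293 cells stably co-expressing hIL-13Rα and hIL-4Rα (200,000/well) stained at 4 °C for 1 h, then a further 1 h at 4 °C in the dark. Median fluorescence intensity read by flow cytometry.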

[2] = target: T4, hIL-13 (human, UniProt P35225 35-146, limits assumed); experiment: ELISA
T4 construct: IL-13 as used in the cell assays, the ELISA, the binning study and HDX-MS/XL-MS; also called human IL-13; Hu IL-13
T4 sequence (P35225 other isoform, or with tags, fused parts or gaps limits assumed): as above

[3] = target: T5, Recombinant Human IL-13 Protein, His Tag (Acro Cat. IL3-H52H4) (human, UniProt P35225 35-146); experiment: SPR (Biacore 8K), mAb captured on Protein G chip, IL-13 as analyte
T5 construct: Bought protein; also called Hu IL-13; not shown: His Tag
T5 sequence (P35225 other isoform, or with tags, fused parts or gaps limits assumed): as above
Experimental: Samples were injected in a multi-cycle manner over freshly captured mAb, by regenerating the capture surfaces with injection of glycine pH 1.5 for 30 sec at a flow rate of 30 μL/min. The data was processed and analyzed with Biacore Insight Evaluation Software Version 2.0.15.12933 (GE Healthcare) as follows. […] The responses from the two buffer blank injections were then subtracted from the reference subtracted data (2-1) to yield double-referenced data, which were fit to an 1:1 binding model to determine the apparent association (ka) and dissociation rate constants (kd). Their ratio provided the apparent equilibrium dissociation constant or affinity constant (KD=kd/ka).

[4] = target: T4, hIL-13; experiment: cell-based or functional assay
[5] = target: T4, hIL-13; experiment: cell-based or functional assay; remark: listed apart in the source
[6] = target: T4, hIL-13; experiment: cell-based or functional assay; remark: listed apart in the source
[7] = target: T4, hIL-13; experiment: cell-based or functional assay; remark: listed apart in the source
[8] = target: T4, hIL-13; experiment: cell-based or functional assay; remark: listed apart in the source
[9] = target: recombinant human CD64 (human, UniProt P12314 16-288); experiment: SPR, antibody captured on anti-kappa chip, recombinant human receptor as analyte
Sequence of recombinant human CD64 (P12314 16-288 limits assumed): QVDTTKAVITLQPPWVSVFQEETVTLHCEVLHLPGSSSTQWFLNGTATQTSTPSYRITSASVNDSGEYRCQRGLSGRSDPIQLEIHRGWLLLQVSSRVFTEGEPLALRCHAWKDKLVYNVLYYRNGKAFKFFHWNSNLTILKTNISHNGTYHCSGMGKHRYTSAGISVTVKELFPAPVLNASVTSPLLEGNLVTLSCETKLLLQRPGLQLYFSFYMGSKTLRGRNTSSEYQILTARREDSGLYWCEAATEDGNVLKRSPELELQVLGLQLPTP
Experimental: (§1) Binding affinity (KD) of antibodies to Fc receptors and C1q were determined through surface plasmon resonance (SPR) using a Biacore 8K. Briefly, an SPR chip functionalized with an anti-kappa light-chain antibody was used to capture purified antibodies normalized to […], at a flow rate of 10 uL/min for 90 seconds or 120 seconds. A paired channel with only buffer was used as reference. Subsequently, varying concentrations of recombinant human CD32a (167H), CD32a (167R), CD32b, CD16a (176V), CD16a (176F), FcRn, CD64, and C1q were injected over the surface with captured purified antibody as well as the reference channel. Regeneration of the chip between different concentrations of different antigens were performed with 10 mM Glycine HCl, pH 1.5 and antibody was again captured. Association and dissociation rate constants were subsequently determined through fitting to a 1:1 Langmuir binding model or steady-state analysis model, whichever applicable, using the Biacore Insight Evaluation Software from which a KD value was derived.

[10] = target: T1, recombinant human CD32b; experiment: as above
Experimental: as §1

[11] = target: recombinant human CD16a (176V) (human, UniProt P08637 17-208); experiment: as above
Sequence of recombinant human CD16a (176V) (P08637 17-208 F176V): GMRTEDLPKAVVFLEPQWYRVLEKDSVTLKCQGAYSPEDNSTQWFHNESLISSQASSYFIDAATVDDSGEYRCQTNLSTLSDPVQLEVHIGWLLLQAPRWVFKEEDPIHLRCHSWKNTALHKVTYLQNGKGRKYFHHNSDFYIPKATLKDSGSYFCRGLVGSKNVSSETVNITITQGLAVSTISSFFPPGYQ
Experimental: as §1

[12] = target: T2, recombinant human CD32a (167R); experiment: as above
Experimental: as §1

[13] = target: T6, recombinant human C1q (human, UniProt P02745 23-245; P02746 28-253; P02747 29-245, limits assumed); experiment: SPR, antibody captured on anti-kappa chip, C1q as analyte; signal relative to rituximab
T6 construct: subunit composition is from general knowledge
T6 sequence (P02745 23-245 limits assumed, chain 1 of 3): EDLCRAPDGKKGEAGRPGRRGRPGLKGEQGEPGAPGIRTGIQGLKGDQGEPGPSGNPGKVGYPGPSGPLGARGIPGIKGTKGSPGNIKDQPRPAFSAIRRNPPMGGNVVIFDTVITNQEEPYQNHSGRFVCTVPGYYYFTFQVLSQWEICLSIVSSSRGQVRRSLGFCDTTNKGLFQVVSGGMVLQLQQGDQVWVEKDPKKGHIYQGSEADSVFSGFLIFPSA
T6 sequence (P02746 28-253 limits assumed, chain 2 of 3): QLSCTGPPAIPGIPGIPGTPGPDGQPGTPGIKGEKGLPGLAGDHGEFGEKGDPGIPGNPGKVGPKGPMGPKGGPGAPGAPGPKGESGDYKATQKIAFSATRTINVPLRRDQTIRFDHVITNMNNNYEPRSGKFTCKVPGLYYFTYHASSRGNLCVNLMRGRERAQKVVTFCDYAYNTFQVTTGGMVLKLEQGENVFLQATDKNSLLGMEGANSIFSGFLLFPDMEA
T6 sequence (P02747 29-245 limits assumed, chain 3 of 3): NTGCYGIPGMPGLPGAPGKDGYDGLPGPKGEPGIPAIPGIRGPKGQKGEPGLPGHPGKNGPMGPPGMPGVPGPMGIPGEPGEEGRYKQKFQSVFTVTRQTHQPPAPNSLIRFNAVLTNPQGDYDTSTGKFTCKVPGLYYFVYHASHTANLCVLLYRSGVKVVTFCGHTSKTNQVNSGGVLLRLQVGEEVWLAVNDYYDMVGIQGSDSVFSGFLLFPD
Experimental: as §1

[14] = target: T3, Recombinant Cynomolgus IL-13 Protein, …; experiment: SPR (Biacore 8K), mAb captured on Protein G chip, IL-13 as analyte
How it was run: (§2)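 Antigen injected multi-cycle over freshly captured mAb; surfaces regenerated with glycine pH 1.5 for 30 sec. Double-referenced sensorgrams fit to a 1:1 binding model for apparent ka and kd; KD = kd/ka.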

[15] = target: T5, Recombinant Human IL-13 Protein, His …; experiment: as above; remark: listed apart in the source
How it was run: as §2

[16] = target: T4, hIL-13; experiment: cell-based or functional assay; remark: listed apart in the source
[17] = target: T7, recombinant human FcRn (human, UniProt P55899 24-297; P61769 21-119); experiment: SPR, antibody captured on anti-kappa chip, FcRn as analyte, pH 5.8; pH 5.8
T7 construct: also called neonatal Fc receptor
T7 sequence (P55899 24-297 limits assumed, chain 1 of 2): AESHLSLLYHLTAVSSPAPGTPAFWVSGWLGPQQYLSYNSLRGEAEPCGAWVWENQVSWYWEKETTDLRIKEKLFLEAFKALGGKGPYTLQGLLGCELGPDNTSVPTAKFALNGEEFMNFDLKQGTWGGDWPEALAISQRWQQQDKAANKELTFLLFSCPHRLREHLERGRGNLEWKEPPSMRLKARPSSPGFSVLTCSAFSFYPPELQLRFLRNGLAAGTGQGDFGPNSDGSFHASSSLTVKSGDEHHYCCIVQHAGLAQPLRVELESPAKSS
T7 sequence (P61769 21-119 limits assumed, chain 2 of 2): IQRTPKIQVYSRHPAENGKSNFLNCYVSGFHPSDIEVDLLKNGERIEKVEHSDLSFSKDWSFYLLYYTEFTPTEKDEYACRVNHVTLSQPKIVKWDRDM
Experimental: as §1

| Binder | IC50 [1] [nM] | Kd [2] [nM] | TARC Inhibition IC50 (A549 cells) [4] [nM] | pSTAT6 Inhibition IC50 (HT-29 cells) [6] [nM] | CCL2 Secretion IC50 (HaCaT cells) [7] [nM] | CCL26 Secretion IC50 (HaCaT cells) [7] [nM] | NTRK1 Expression IC50 (HaCaT cells) [7] [nM] | TF-1 Proliferation Inhibition IC50 [8] [nM] | binding result [9] | binding result [10] | binding result [12] | C1q (Signal Relative to Rituximab) [13] [%] | Kd [14] [nM] | Kd [15] [nM] | Kd [17] [nM] | further results |
| --- | --- | --- | --- | --- | --- | --- | --- | --- | --- | --- | --- | --- | --- | --- | --- | --- |
| Construct 133 (antibody, human IgG1, kappa, L234A L235A, also called HC1; LC6) heavy: EVQLQESGPGLVKPSETLSLTCTVSGFSLNAYSVNWIRQPPGKGLEWLGMIWGDGKIVYNSALKSRLTISKDSSKNQVSLKLSSVTAADTAVYYCAGDGYYPYAMDNWGQGTTVTVSSASTKGPSVFPLAPSSKSTSGGTAALGCLVKDYFPEPVTVSWNSGALTSGVHTFPAVLQSSGLYSLSSVVTVPSSSLGTQTYICNVNHKPSNTKVDKKVEPKSCDKTHTCPPCPAPEAAGGPSVFLFPPKPKDTLYITREPEVTCVVVDVSHEDPEVKFNWYVDGVEVHNAKTKPREEQYNSTYRVVSVLTVLHQDWLNGKEYKCKVSNKALPAPIEKTISKAKGQPREPQVYTLPPSRDELTKNQVSLTCLVKGFYPSDIAVEWESNGQPENNYKTTPPVLDSDGSFFLYSKLTVDKSRWQQGNVFSCSVMHEALHNHYTQKSLSLSPG light: DIQLTQSPSSLSASVGDRVTITCRASKSVDSYGNSFMHWYQQKPGKAPKLLIYLASNLESGVPSRFSGSGSGTDFTLTISSLQPEDFATYYCQQNNEDPRTFGGGTKVEIKRTVAAPSVFIFPPSDEQLKSGTASVVCLLNNFYPREAKVQWKVDNALQSGNSQESVTEQDSKDSTYSLSSTLTLSKADYEKHKVYACEVTHQGLSSPVTKSFNRGEC | 0.89 | 0.019 | 0.86 | 0.28 | 0.077 | 0.06 | 0.062 | 0.15 | no binding | no binding | no binding | 15.9 | 0.208 | 0.0777 | 150 | Kd [3]: 0.077 nM; TF-1 Proliferation Inhibition IC50 [5]: 0.16 nM; binding result [11]: no binding; CD23 Expression Inhibition IC50 (human PBMCs) [16]: 0.85 nM; pSTAT6 Inhibition IC50 (human PBMCs) [16]: 0.44 nM |
| Construct 136 (antibody, human IgG1, kappa, L234A L235A, also called HC1; LC6) heavy: not shown light: DIQLTQSPSSLSASVGDRVTITCRASKSVDSYGNSFMHWYQQKPGKAPKLLIYLASNLESGVPSRFSGSGSGTDFTLTISSLQPEDFATYYCQQNNEDPRTFGGGTKVEIKRTVAAPSVFIFPPSDEQLKSGTASVVCLLNNFYPREAKVQWKVDNALQSGNSQESVTEQDSKDSTYSLSSTLTLSKADYEKHKVYACEVTHQGLSSPVTKSFNRGEC | 1.02 | 0.018 | 0.89 | 0.3 | 0.074 | 0.052 | 0.053 | 0.15 | no binding | no binding | no binding | 25.4 | 0.161 | 0.0698 | 90 | Kd [11]: 4670 nM |

— patent US20250129150A1 (APOGEE THERAPEUTICS, published 2025)
